In the RNAGym collection of RNA variant scans (doi:10.7554/elife.80360):

B1: CPEB3 Ribozyme (parent)
chain: GGGGGCCACAGCAGAAGCGUUCACGUCGCGGCCCCUGUCAGAUUCUGGUGAAUCUGCGAAUUCUGCUGU

Variants of: B1
Assay: self-cleavage, relative activity (ratio to wild type); higher = more cleavage; co-transcriptional

Variant | self-cleavage
GGGGGCCACAGAAGAAGCGUUCACGUCGCGGCCCCUGUCAGAUUCUGAUGAAUCUGCGAAUUCUGCUGU [C12A G48A] | 0.833
GGGGGCCACAGAAGAAGCGUUCACGUCGCGGCCCCUGUCAGAUUCUGCUGAAUCUGCGAAUUCUGCUGU [C12A G48C] | 0.771
GGGGGCCACAGAAGAAGCGUUCACGUCGCGGCCCCUGUCAGAUUCUCGUGAAUCUGCGAAUUCUGCUGU [C12A G47C] | 0.837
GGGGGCCACAGAAGAAGCGUUCACGUCGCGGCCCCUGUCAGAUUCUAGUGAAUCUGCGAAUUCUGCUGU [C12A G47A] | 0.875
GGGGGCCACAGAAGAAGCGUUCACGUCGCGGCCCCUGUCAGAUUCUUGUGAAUCUGCGAAUUCUGCUGU [C12A G47U] | 0.876
GGGGGCCACAGAAGAAGCGUUCACGUCGCGGCACCUGUCAGAUUCUGGUGAAUCUGCGAAUUCUGCUGU [C12A C33A] | 0.553
GGGGGCCACAGAAGAAGCGUUCACGUCGCGGCGCCUGUCAGAUUCUGGUGAAUCUGCGAAUUCUGCUGU [C12A C33G] | 0.395
GGGGGCCACAGAAGAAACGUUCACGUCGCGGCCCCUGUCAGAUUCUGGUGAAUCUGCGAAUUCUGCUGU [C12A G17A] | 0.187
GGGGGCCACAGAAGAAUCGUUCACGUCGCGGCCCCUGUCAGAUUCUGGUGAAUCUGCGAAUUCUGCUGU [C12A G17U] | 0.0724
GGGGGCCACAGAAGAACCGUUCACGUCGCGGCCCCUGUCAGAUUCUGGUGAAUCUGCGAAUUCUGCUGU [C12A G17C] | 0.139
GGGGGCCACAGAAGAAGCGUUCACGUCGCGGCCCCUGUCAGAUUCUGGUGAAUCUGCGAAUUCUGAUGU [C12A C66A] | 0.686
GGGGGCCACAGAAGAAGCGUUCACGUCGCGGCCCCUGUCAGAUUCUGGUGAAUCUGCGAAUUCUGGUGU [C12A C66G] | 0.561
GGGGGCCACAGAAGAAGCGUUCACGUCGCGGCCCCUGUCACAUUCUGGUGAAUCUGCGAAUUCUGCUGU [C12A G41C] | 0.191
GGGGGCCACAGAAGAAGCGUUCACGUCGCGGCCCCUGUCAUAUUCUGGUGAAUCUGCGAAUUCUGCUGU [C12A G41U] | 0.286
GGGGGCCACAGAAGAAGCGUUCACGUCGCGGCCCCUGUCAGAUUGUGGUGAAUCUGCGAAUUCUGCUGU [C12A C45G] | 0.614
GGGGGCCACAGAAGAAGCGUUCACGUCGCGGCCCCUGUCAGAUUAUGGUGAAUCUGCGAAUUCUGCUGU [C12A C45A] | 0.579
GGGGGCCACAGAAGAAGCGUUCACGUCGCGGUCCCUGUCAGAUUCUGGUGAAUCUGCGAAUUCUGCUGU [C12A C32U] | 0.79
GGGGGCCACAGAAGAAGCGUUCACGUCGCGGCCCUUGUCAGAUUCUGGUGAAUCUGCGAAUUCUGCUGU [C12A C35U] | 0.624
GGGGGCCACAGAAGAAGCGUUCACGUCGCGGCCCAUGUCAGAUUCUGGUGAAUCUGCGAAUUCUGCUGU [C12A C35A] | 0.149
GGGGGCCACAGAAGAAGCGUUCACGUCGCGGCCCCUGUCAGAUUCUGGUGAAUCUGCGAAUUGUGCUGU [C12A C63G] | 0.354

Variant | self-cleavage
GGGGGCCACAGAAGAAGCGUUCACGUCGCUGCCCCUGUCAGAUUCUGGUGAAUCUGCGAAUUCUGCUGU [C12A G30U] | 0.212
GGGGGCCACAGAAGAAGCGUUCACGUCGCAGCCCCUGUCAGAUUCUGGUGAAUCUGCGAAUUCUGCUGU [C12A G30A] | 0.322
GGGGGCCACAGAACAAGCGUUCACGUCGCGGCCCCUGUCAGAUUCUGGUGAAUCUGCGAAUUCUGCUGU [C12A G14C] | 0.126
GGGGGCCACAGAAGAAGCGUUCACGUCGCGGCCCCUGUCAGAUUCUGGUGAAUAUGCGAAUUCUGCUGU [C12A C54A] | 0.311
GGGGGCCACAGAAGAAGCGUUCACGUCGCGGCCCCUGUCAGAUUCUGGUGAAUGUGCGAAUUCUGCUGU [C12A C54G] | 0.392
GGGGGCCACAGAAGAAGCGUUCACGUCCCGGCCCCUGUCAGAUUCUGGUGAAUCUGCGAAUUCUGCUGU [C12A G28C] | 0.164
GGGGGCCACAGAAGAAGCGUUCACGUCUCGGCCCCUGUCAGAUUCUGGUGAAUCUGCGAAUUCUGCUGU [C12A G28U] | 0.141
GGGGGCCACAGAAGAAGCGUUCACGUCGCGGCCCCUGUCAGAUUCUGGUGAAUCUGUGAAUUCUGCUGU [C12A C57U] | 0.317
GGGGGCCACAGAAGAAGCGUUCACGUCGCGGCCCCUGUCAGAUUCUGGUGAAUCUGGGAAUUCUGCUGU [C12A C57G] | 0.212
GGGGGCCACAGAAGAAGCGUUCACGUCGCGGCCCCUGUCAGAUUCUGGUGAAUCUGAGAAUUCUGCUGU [C12A C57A] | 0.172
GGGGGCCACAGAAGAAGCGUUCACGUCGCGGCCCCUGUCAGAUUCUGGUCAAUCUGCGAAUUCUGCUGU [C12A G50C] | 0.591
GGGGGCCACAGAAGAAGCGUUCACGUCGCGGCCCCUGUCAGAUUCUGGUAAAUCUGCGAAUUCUGCUGU [C12A G50A] | 0.809
GGGGGCCACAGAAGAAGCGUUCACGUCGCGGCCCCUGUAAGAUUCUGGUGAAUCUGCGAAUUCUGCUGU [C12A C39A] | 0.228
GGGGGCCACAGAAGAAGCGUUCACGUCGCGGCCCCUGUGAGAUUCUGGUGAAUCUGCGAAUUCUGCUGU [C12A C39G] | 0.346
GGGGGCCACAGAAGAAGCGUUCACGUCGCGGCCCCUGUUAGAUUCUGGUGAAUCUGCGAAUUCUGCUGU [C12A C39U] | 0.355
GGGGGCCACAGAAGAAGCCUUCACGUCGCGGCCCCUGUCAGAUUCUGGUGAAUCUGCGAAUUCUGCUGU [C12A G19C] | 0.125
GGGGGCCACAGAAGAAGCGUUCACCUCGCGGCCCCUGUCAGAUUCUGGUGAAUCUGCGAAUUCUGCUGU [C12A G25C] | 0.127
GGGGGCCACAGAAGAAGCGUUCACGUCGCGGCCGCUGUCAGAUUCUGGUGAAUCUGCGAAUUCUGCUGU [C12A C34G] | 0.495
GGGGGCCACAGAAGAAGCGUUCACGUCGCGGCCACUGUCAGAUUCUGGUGAAUCUGCGAAUUCUGCUGU [C12A C34A] | 0.448
